Measured values as given in patent US20110207132.

Tested on: BfuCI restriction endonuclease
Experiment: cleavage_in_vitro
Conditions: for binding signal (signal/no-template): after 25 min
[1] = phosphorothioate 5' of GATC in probe B
[2] = phosphorothioate 5' of GATC in probe B, JP3 cleaved greater than four times faster

For “AGAGTCCACCAAGCTTCAGATTAG / TCTGAAGCTTTGATC / AAAAGATCAAATTGGTGGACTCTAAAA [JP3]”, the activity (phosphorothioate 5' of GATC in probe B, average rate first 5 min, 7-fold signal enhancement over JP2) was 0.9 nM/min.
“AGAGTCCACCAAGCTTCAGATTAG / TCTGAAGCTTTGATC / AAAAGATCAAATTGGTGGACTCTAAAA [JP4]” showed a binding signal (phosphorodithioate 5' of GATC in probe B, fluorescence enhancement) of 3 fold vs JP2.
“AGAGTCCACCAAGCTTCAGATTAG / TCTGAAGCTTTGATC / AAAAGATCAAATTGGTGGACTCTAAAA [T1/A/B junction probe (JP2)]” was tested, and the binding signal (fold vs no template) (NEBuffer 4, 10 mM Mg, 30 C, 5 h) was 60.
Sequence “AGAGTCCACCAAGCTTCAGATTAG / TCTGAAGCTTTGATC / AGTAACGGAAAACCGTTACTAAAAGATCAAATTGGTGGACTCT [JP10]” has a binding signal (signal/no-template) [1] of 4.7.
Sequence “AGAGTCCACCAAGCTTCAGATTAG / TCTGAAGCTTTGATC / AGTAACGGAAAACCGTTACTAAAAGATCAATTTGGTGGACTCT [JP13]” has a binding signal (signal/no-template) [1] of 13.5.
Sequence “AGAGTCCACCAAGCTTCAGATTAG / TCTGAAGCTTTGATC / AGTAACGGAAAACCGTTACTAAAAGATCATATTGGTGGACTCT [JP14]” has a binding signal (signal/no-template) [1] of 9.
In the case of “AGAGTCCACCAAGCTTCAGATTAG / TCTGAAGCTTTGATC / CCCCGATCAAATTGGTGGACTCTAAAA [JP8]”, the binding signal [2] is reported as < 0.25 fold vs JP3.
With “AGAGTCCACCAAGCTTCAGATTAG / TCTGAAGCTTTGATC / GGGGGATCAAATTGGTGGACTCTAAAA [JP7]” the binding signal [2] was < 0.25 fold vs JP3.
With “AGAGTCCACCAAGCTTCAGATTAG / TCTGAAGCTTTGATC / TGGATCGGAAAACCGATCCAGATCATATTGGTGGACTCT [JP18]” the activity (phosphorothioate 5' of each GATC in probe B, initial rate, NEBuffer 4, 10 mM Mg, 30 C) was 82 nM/min.
Work on “AGAGTCCACCAAGCTTCAGATTAG / TCTGAAGCTTTGATC / TGTAACGGAAAACCGTTACAGATCAAATTGGTGGACTCT [JP12]” yielded an activity (phosphorothioate 5' of GATC in probe B, average rate first 5 min, 30 C) of 39 nM/min.
“AGAGTCCACCAAGCTTCAGATTAG / TCTGAAGCTTTGATC / TGTAACGGAAAACCGTTACAGATCATATTGGTGGACTCT [JP16]” gave an activity (phosphorothioate 5' of GATC in probe B, initial rate, 30 C) of 43 nM/min.
With “AGAGTCCACCAAGCTTCAGATTAG / TCTGAAGCTTTGATC / TTTTGATCAAATTGGTGGACTCTAAAA [JP9]” the binding signal [2] was < 0.25 fold vs JP3.
